Reference: US20250263483A1 (TRUSTEES OF COLUMBIA UNIVERSITY IN THE CITY OF NEW YORK, published 2025)

How the values were obtained:
[1] = biological target: T1, human PAG peptide (extracellular portion of human PAG) (human); assay: ELISA on human PAG-1 peptide (FIG. 10)
T1 construct: The immunogen was amino acids 1-16 of human PAG; also called human PAG-1 peptide; human PAG protein
T1 peptide: MGPAGSLLGSGQMQIT

[2] = biological target: T1, human PAG peptide (extracellular …); assay: dose-response ELISA, immobilized human PAG, purified monoclonal antibody (FIG. 2F)
Experimental: (§1) Primary ELISA was done for screening binding of hybridoma supernatants to human, murine, and cynomolgus PAG (2 μg/mL). Second ELISA for confirmation of binding of purified monoclonal antibodies to human PAG, 96-well half area high binding ELISA plates (Corning 3690) were coated 1 μg/mL of human PAG protein in 1×TBS at room temperature for 2 hours. The plate was washed with TBS containing 0.05% Tween 20 and blocked with 2% BSA in TBS for 1 hour at room temperature. After 1 hour, the plate was washed and diluted PAG antibodies in 1×TBS were dispensed to respective wells and incubated for 1 hour at room temperature. The plate was washed and incubated with peroxidase-Affinipure F(ab′)2 goat anti-mouse IgG (Jackson Immuno Research, Cat. No. 115-006-003) at 1:5000 dilution for 1 hour at room temperature. After the plate was washed, 3, 3′, 5, 5′ tetramethyl benzidine (TMB) substrate (Biolegend, Cat. No. 421101) was added to each well. The reaction was stopped by adding 2N H2SO4. Absorbance was measured on plate reader (Biotek Synergy H1) and results calculated by A=A450 nm-A570 nm.

[3] = biological target: T2, mouse PAG, endogenous on wild-type C57BL6 splenocytes (mouse, UniProt Q3U1F9 1-429); assay: flow cytometry, non-permeabilized WT vs PAG KO mouse splenocytes (FIG. 2B)
T2 construct: whole, on cells; also called murine PAG
T2 sequence (looked up): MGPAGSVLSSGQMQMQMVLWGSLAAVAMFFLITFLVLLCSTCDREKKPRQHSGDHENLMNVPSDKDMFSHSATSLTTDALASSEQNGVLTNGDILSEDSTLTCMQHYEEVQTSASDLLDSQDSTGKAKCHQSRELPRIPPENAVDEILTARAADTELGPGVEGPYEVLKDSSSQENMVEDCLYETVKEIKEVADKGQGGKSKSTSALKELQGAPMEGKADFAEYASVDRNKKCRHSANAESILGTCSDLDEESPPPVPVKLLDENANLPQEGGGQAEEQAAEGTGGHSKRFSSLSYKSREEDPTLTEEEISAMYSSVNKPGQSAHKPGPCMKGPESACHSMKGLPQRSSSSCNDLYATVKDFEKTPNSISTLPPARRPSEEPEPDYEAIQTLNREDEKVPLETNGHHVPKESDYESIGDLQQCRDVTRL
Experimental: (§2) Non-permeabilized cells were stained with the primary antibody clones in FACS Buffer [HBSS without Ca²⁺/Mg²⁺, FBS (3%), NaN3 (0.02%), and CaCl2 (2.5 mM)], then washed and stained with fluorescently conjugated secondary antibody (goat anti-mouse, Jackson ImmunoResearch, Cat. No. 115-006-003). Stained cells were then fixed in 1% paraformaldehyde. Splenocytes were pre-treated with Fc receptor block (Biolegend, Cat. No. 422301). PAG-GFP expressing cells were fixed in 1% paraformaldehyde. Events were recorded using FACSCanto (BD), and analyzed using FlowJo software (Ver. 10.8.1).

[4] = biological target: T3, PAG-GFP (full-length human PAG fused to GFP) expressed on cells (human, UniProt Q9NWQ8 1-432); assay: flow cytometry, non-permeabilized A549 cells stably expressing PAG-GFP (FIG. 7B; FIG. 2E)
T3 construct: Stably expressed in A549 cells (flow cytometry) and Jurkat T cells (microscopy); also called PAG-GFP (OE); not shown: GFP tag (peGFP-N1 / pCDH-PAG-GFP constructs)
T3 sequence: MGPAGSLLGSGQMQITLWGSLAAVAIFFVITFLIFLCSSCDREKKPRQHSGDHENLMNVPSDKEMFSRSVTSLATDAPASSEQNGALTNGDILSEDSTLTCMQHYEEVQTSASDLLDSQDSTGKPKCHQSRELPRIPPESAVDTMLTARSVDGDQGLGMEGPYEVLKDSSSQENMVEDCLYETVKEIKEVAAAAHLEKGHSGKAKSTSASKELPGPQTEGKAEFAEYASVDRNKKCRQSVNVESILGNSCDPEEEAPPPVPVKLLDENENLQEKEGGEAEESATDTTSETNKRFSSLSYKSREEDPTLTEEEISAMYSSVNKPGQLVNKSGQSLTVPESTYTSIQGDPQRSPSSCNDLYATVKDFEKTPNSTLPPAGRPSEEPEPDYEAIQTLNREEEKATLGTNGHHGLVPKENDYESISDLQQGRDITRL
Experimental: as §2

[5] = biological target: T1, human PAG peptide (extracellular …); assay: dose-response ELISA, immobilized human PAG, purified monoclonal antibodies (FIG. 2F)
Experimental: as §1

B1: 7M-hu-1 (humanized version of 7M16A) (antibody, V domains shown)
VH: QVQLVQSGAEVKKPGASVKVSCKASGYTFTSYVMHWVRQAPGQGLEWMGYIYPYNDGTKYNEKFKGRVTMTRDTSTSTVYMELSSLRSEDTAVYYCARYKYGQGFAYWGQGTTVTVSS
VL: DIQMTQSPSSVSASVGDRVTITCRASENIYSNLAWYQQKPGKAPKLLIYAATNLADGVPSRFSGSGSGTDFTLTISSLQPEDFATYYCQHFWGTPWTFGGGTKLEIKR
binding result [1]: binds

B2: anti-PAG antibody clone 7M16A (antibody, mouse IgG1, kappa, V domains shown)
VH: EVQLQQSGPELVKPGASVKMSCKASGYTFTSYVMHWVKQKPGQGLEWIGYIYPYNDGTKYNEKFKGKATLTSDKSSSTAYMELSSLTSEDSAVYYCARYKYGQGFAYWGQGTRVTVSA
VL: DIQMTQSPASLSVSVGETVTITCRASENIYSNLAWYQQKQGKSPQLLVYAATNLADGVPSRFSGSGSGTQYSLKINSLQSEDFGSYYCQHFWGTPWTFGGGTKLEIKR
notes: Mouse hybridoma monoclonal, tested as hybridoma supernatant and as purified antibody
binding result [2]: binds
binding result [3]: binds
binding result [4]: binds

B3: anti-PAG antibody clone 8D04A (antibody, mouse IgG1, kappa, V domains shown)
VH: QIQLVQSGPELKKPGETVKISCKASGYIFTNYGMNWVKQAPGKGLKWMGWINPYTGEATYDDDFKGRFAFSLETSANTAYLQINNLKNEDTATYFCAKTGTTYWGQGTLVTVSA
VL: QIVLTQSPAIMSASPGEKVTMTCSASSSVSYMYWYQQKSGTSPKRWIYDTSKLASGVPARFSGSGSGTSYSLTINNMEAEDAATYYCQQWSSNPLTFGAGTKLELKR
notes: Mouse hybridoma monoclonal
binding result [5]: no binding
